Legend:
Assay in all cases: Kinase Profiling Assay
Type in all cases: biochemical
Conditions in all cases: 100 μM
CDK9/cyclin T1(h) = CDK9/cyclin T1(h) (Homo sapiens, UniProt P50750)
SAPK2b(h) = SAPK2b(h) (Homo sapiens, UniProt Q15759)
MINK(h) = MINK(h) (Homo sapiens, UniProt Q8N4C8)
Met(h) = Met(h) (Homo sapiens, UniProt P08581)
CHK1(h) = target: T1, CHK1(h) (Homo sapiens, UniProt O14757)
T1 sequence (O14757 1-476): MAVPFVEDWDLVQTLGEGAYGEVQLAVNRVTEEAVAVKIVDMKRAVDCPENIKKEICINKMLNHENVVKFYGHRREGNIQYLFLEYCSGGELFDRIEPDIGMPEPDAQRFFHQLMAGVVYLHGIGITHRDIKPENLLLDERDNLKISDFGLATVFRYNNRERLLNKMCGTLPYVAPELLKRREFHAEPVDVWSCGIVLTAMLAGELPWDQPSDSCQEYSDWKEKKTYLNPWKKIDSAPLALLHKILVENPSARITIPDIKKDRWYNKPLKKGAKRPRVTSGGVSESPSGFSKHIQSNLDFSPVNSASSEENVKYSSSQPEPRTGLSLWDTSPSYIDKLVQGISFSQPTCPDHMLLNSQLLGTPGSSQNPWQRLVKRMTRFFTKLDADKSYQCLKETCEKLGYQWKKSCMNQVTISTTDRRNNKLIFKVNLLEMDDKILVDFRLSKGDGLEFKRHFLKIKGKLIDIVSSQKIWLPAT

CHK2(I157T)(h) = CHK2(I157T)(h) (Homo sapiens, UniProt O96017, I157T)
DAPK1(h) = DAPK1(h) (Homo sapiens, UniProt P53355)
PrKX(h) = target: T2, PrKX(h) (Homo sapiens, UniProt P51817)
T2 sequence (P51817 1-358): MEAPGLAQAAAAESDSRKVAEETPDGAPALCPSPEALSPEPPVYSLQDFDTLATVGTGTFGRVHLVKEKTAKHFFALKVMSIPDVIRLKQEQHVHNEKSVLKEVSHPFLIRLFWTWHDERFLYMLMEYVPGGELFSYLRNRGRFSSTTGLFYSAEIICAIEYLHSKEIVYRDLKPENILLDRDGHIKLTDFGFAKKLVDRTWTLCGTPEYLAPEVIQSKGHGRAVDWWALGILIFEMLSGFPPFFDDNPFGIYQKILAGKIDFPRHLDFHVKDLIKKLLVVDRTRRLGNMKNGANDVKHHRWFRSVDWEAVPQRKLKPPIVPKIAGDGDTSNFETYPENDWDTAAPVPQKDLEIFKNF

IKKα(h) = target: T3, IKKα(h) (Homo sapiens, UniProt O15111)
T3 sequence (O15111 1-745): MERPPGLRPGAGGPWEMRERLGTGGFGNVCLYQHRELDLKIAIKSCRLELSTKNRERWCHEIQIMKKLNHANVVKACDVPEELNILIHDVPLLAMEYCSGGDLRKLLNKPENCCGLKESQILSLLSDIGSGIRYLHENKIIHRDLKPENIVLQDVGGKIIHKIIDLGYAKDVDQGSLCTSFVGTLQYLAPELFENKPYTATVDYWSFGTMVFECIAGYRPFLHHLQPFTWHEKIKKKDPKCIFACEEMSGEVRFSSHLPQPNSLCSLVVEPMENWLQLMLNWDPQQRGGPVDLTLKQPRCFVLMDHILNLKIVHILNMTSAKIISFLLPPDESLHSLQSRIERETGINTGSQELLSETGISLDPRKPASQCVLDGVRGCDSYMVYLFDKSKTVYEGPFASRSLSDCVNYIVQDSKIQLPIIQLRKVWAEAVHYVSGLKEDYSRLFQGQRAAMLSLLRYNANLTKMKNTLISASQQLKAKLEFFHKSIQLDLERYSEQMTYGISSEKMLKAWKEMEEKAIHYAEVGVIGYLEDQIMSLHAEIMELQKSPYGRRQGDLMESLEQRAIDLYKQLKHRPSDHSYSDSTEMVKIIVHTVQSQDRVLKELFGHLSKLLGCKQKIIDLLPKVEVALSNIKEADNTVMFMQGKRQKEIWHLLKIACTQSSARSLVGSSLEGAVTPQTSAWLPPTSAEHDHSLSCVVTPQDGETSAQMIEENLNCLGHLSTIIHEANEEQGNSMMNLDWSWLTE

BTK(R28H)(h) = BTK(R28H)(h) (Homo sapiens, UniProt Q06187, R28H)

CHK2(I157T)(h), sequence (O96017 whole entry I157T): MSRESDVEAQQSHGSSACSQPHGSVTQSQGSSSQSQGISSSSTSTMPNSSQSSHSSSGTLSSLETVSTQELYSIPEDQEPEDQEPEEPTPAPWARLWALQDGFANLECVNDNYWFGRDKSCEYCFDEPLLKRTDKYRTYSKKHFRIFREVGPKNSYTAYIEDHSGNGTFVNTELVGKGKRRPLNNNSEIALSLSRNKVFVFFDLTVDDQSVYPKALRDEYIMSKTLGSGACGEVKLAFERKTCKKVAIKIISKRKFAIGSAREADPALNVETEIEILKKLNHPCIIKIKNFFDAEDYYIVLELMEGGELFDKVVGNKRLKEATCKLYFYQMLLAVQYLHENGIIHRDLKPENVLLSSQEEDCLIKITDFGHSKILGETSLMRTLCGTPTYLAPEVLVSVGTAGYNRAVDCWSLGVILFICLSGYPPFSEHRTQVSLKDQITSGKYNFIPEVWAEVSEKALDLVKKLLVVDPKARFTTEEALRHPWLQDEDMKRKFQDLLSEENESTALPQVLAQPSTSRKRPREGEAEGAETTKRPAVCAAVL
Met(h), sequence (P08581 25-1390): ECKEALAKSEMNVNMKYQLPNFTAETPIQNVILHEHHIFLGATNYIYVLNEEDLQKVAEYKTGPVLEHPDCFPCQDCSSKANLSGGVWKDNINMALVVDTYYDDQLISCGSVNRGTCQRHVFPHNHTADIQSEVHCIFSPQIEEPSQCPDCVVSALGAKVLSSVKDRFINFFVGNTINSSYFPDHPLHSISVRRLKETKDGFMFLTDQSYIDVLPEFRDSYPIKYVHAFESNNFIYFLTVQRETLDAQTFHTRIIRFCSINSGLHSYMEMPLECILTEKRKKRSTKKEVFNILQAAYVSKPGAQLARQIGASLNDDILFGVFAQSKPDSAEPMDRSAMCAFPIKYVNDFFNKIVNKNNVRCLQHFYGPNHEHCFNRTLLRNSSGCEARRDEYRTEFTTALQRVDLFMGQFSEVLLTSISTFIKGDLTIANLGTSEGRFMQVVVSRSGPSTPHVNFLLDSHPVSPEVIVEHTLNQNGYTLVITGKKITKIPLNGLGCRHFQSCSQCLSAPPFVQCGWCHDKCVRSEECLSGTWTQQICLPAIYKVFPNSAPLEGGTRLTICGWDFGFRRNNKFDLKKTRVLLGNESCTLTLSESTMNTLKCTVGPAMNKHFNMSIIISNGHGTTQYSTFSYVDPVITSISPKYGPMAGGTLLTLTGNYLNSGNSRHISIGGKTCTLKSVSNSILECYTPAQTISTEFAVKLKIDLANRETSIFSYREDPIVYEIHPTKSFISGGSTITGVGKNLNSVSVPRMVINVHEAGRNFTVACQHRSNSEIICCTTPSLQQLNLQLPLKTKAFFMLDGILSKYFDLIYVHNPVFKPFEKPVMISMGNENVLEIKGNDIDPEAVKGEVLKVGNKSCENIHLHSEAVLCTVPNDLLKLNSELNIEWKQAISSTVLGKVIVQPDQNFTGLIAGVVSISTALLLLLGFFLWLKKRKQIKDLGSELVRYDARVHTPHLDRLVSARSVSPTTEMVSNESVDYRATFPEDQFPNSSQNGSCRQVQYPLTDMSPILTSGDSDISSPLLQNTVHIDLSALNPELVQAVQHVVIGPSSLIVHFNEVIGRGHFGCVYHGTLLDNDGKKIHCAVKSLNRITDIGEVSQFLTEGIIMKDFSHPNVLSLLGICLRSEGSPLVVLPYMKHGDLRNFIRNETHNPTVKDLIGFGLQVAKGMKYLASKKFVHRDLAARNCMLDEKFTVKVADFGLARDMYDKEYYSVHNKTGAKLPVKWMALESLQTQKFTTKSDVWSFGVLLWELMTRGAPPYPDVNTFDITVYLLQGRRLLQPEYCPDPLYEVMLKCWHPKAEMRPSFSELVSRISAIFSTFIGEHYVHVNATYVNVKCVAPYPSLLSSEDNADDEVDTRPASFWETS
SAPK2b(h), sequence (Q15759 whole entry): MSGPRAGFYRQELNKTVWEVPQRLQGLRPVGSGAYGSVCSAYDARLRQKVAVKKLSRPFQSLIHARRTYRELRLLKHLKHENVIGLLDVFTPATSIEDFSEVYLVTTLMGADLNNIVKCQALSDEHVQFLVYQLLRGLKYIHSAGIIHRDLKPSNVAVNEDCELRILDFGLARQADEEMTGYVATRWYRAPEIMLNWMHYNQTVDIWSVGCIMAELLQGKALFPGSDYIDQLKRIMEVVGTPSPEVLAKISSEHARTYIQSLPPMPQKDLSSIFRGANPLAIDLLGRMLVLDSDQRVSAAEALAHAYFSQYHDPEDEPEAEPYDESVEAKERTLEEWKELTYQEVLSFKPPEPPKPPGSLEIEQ
CDK9/cyclin T1(h), sequence (P50750 whole entry): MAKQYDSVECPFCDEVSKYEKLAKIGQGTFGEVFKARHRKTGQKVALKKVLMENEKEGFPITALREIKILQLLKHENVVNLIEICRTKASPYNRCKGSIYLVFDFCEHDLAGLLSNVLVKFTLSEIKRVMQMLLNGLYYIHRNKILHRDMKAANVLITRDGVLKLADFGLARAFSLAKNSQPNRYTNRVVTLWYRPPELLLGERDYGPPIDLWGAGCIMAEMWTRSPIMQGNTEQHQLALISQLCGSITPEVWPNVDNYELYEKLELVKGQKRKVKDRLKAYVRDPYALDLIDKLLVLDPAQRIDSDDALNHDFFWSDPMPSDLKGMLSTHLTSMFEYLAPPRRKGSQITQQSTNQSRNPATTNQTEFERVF
CDK9/cyclin T1(h), sequence (O60563 whole entry partner): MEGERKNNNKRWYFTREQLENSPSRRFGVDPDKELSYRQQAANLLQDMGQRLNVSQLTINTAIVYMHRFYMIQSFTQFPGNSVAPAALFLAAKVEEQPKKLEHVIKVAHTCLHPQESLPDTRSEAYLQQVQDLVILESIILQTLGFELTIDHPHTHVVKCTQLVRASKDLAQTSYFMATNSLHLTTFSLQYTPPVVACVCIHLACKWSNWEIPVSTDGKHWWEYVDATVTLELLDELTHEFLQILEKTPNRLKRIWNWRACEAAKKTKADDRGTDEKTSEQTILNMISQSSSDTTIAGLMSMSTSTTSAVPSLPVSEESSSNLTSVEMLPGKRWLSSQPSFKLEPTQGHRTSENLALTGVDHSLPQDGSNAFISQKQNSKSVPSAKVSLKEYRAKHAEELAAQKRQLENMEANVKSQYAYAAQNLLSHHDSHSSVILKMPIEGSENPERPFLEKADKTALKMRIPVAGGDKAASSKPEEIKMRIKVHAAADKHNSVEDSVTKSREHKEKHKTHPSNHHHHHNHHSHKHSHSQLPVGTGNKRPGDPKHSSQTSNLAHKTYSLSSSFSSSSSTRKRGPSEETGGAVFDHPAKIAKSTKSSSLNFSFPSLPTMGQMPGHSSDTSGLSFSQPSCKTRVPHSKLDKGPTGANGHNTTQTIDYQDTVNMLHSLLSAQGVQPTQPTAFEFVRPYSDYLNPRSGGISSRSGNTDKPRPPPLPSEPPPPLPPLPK
DAPK1(h), sequence (P53355 whole entry): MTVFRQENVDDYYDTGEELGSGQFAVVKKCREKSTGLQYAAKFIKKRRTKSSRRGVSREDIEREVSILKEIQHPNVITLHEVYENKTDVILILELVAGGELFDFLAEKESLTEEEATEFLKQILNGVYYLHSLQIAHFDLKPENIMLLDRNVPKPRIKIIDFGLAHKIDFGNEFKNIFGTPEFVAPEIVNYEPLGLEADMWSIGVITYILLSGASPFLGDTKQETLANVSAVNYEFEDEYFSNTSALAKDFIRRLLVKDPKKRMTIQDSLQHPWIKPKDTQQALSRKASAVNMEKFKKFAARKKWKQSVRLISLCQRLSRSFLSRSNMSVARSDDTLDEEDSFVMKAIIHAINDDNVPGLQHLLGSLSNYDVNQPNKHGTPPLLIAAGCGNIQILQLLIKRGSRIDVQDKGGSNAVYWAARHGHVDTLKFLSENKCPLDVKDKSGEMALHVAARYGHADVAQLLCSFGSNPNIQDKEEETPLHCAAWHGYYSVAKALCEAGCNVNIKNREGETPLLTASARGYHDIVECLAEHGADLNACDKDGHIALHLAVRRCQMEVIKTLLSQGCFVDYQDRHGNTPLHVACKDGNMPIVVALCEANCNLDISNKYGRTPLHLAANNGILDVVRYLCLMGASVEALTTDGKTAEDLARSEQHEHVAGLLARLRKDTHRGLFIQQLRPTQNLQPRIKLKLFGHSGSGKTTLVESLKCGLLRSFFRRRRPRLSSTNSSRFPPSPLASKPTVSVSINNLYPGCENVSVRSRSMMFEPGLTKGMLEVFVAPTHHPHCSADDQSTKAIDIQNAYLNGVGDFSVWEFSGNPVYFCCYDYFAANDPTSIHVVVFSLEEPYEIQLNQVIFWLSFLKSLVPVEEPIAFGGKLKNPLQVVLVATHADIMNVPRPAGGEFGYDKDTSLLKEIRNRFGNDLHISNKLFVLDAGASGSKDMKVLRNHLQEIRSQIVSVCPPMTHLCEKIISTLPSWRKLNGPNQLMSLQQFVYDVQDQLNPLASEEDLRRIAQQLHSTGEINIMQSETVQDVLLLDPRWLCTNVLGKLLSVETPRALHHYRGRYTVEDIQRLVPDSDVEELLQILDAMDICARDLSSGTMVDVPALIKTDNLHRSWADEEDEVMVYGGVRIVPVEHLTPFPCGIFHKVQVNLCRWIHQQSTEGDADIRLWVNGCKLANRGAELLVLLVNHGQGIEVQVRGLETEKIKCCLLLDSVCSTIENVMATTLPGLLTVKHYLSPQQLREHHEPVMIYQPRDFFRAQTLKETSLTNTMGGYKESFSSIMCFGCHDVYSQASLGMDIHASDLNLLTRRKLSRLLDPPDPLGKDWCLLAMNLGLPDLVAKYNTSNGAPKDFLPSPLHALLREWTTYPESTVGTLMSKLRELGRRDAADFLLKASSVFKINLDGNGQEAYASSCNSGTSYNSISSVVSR

Row | Sequence | % activity (CDK9/cyclin T1(h)) [%] | % activity (SAPK2b(h)) [%] | % activity (MINK(h)) [%] | % activity (Met(h)) [%] | % activity (CHK1(h)) [%] | % activity (CHK2(I157T)(h)) [%] | % activity (DAPK1(h)) [%] | % activity (PrKX(h)) [%] | % activity (IKKα(h)) [%] | % activity (BTK(R28H)(h)) [%]
1 | FAKLAARLYRKALARQLGVAA [MMI-0300] | 91 | 81 | 48 | 65 | 91 | 43 | 46 | 61 | 93 | 74
2 | HRRIKAWLKKIKALARQLGVAA [MMI-0500] | 6 | 42 | 5 | 27 | 65 | 3 | 0 | 57 | 50 | 10
3 | KAFAKLAARLYRKALARQLGVAA [MMI-0400] | 235 | 82 | 52 | 62 | 87 | 41 | 36 | 76 | 87 | 24
4 | YARAAARQARAKALNRQLGVA [MMI-0200] | – | 95 | – | 71 | – | 85 | – | – | – | –

Reference: US20190134153A1, “IMMUNOMODULATORY EFFECT OF INHALED KINASE INHIBITOR PEPTIDES IN LUNG” (MOERAE MATRIX, INC., priority 2017, published 2019)
